In patent publication US20210221867A1 (Novo Nordisk, published 2021):
Positions of bridges follow the written chain, without caps; N, C: chain ends. Non-standard residues stand in square brackets, D forms with d. Nle = CCCC[C@H](N)C(=O)O

Legend:
[1] = target: T1, human MC4 receptor (human, UniProt P32245 1-332); assay: cell-based or functional assay
[2] = target: T2, human MC1 receptor (human, UniProt Q01726 1-317); assay: cell-based or functional assay
[3] = target: T2, human MC1 receptor; assay: SPA competition binding, displacement of 125I-NDP-α-MSH, BHK membranes with human MC1R
Experimental: (§1) The SPA Binding assay was performed in 96-well white opaque plates. Each well contained: 0.5 mg PVT-WGA SPA beads, MC1 receptor expressing membrane diluted to give approximately 10% specific tracer binding, 50.000 dpm ¹²⁵I-NDP-α-MSH and relevant dilutions of test compound. The final volume in each well was 200 μl. […] Plates were incubated overnight (22-24 hours) at room temperature before counting for 2 minutes per well, using a TopCount NXT scintillation counter. Displacement of radio ligand is measured as reduction in light emission from SPA beads, and IC₅₀ values are calculated by nonlinear regression analysis of sigmoidal dose-response curves in GraphPad Prism (GraphPad Software, La Jolla, Calif., USA).

[4] = target: T1, human MC4 receptor; assay: SPA competition binding, displacement of 125I-NDP-α-MSH, BHK membranes with human MC4R
Experimental: as §1, with “MC4” for “MC1”

T2 sequence (Q01726 whole entry): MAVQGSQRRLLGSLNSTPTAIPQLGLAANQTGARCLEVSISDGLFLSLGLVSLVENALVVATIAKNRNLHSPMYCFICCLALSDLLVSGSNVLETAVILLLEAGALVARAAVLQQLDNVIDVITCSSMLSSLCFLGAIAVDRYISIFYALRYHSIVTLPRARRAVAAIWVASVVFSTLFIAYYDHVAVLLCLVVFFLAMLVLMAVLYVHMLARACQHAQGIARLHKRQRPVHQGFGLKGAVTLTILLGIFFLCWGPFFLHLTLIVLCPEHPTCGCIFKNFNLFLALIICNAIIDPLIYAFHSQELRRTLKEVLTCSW
T1 sequence (P32245 whole entry): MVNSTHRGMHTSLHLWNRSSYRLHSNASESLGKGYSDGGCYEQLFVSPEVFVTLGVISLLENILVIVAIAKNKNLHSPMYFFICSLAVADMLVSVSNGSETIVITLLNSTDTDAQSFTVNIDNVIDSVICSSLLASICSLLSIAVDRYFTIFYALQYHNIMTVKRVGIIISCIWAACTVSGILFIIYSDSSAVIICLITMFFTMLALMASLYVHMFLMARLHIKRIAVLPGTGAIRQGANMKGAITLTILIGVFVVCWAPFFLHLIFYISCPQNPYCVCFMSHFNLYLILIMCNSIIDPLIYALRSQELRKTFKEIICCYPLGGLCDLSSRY

B1: Ac-Arg-c[Cys-Pro-His-D-Phe-His-Trp-Cys]-Pro-Pro-D-Arg-Glu-Nle-D-Arg-D-Arg-NH2 (peptide)
peptide: Ac-RCPH[dF]HWCPP[dR]E[Nle][dR][dR]-NH2
modifications: disulfide 2-8
SMILES: CCCC[C@H](NC(=O)[C@H](CCC(=O)O)NC(=O)[C@@H](CCCNC(=N)N)NC(=O)[C@@H]1CCCN1C(=O)[C@@H]1CCCN1C(=O)[C@@H]1CSSC[C@H](NC(=O)[C@H](CCCNC(=N)N)NC(C)=O)C(=O)N2CCC[C@H]2C(=O)N[C@@H](Cc2c[nH]cn2)C(=O)N[C@H](Cc2ccccc2)C(=O)N[C@@H](Cc2c[nH]cn2)C(=O)N[C@@H](Cc2c[nH]c3ccccc23)C(=O)N1)C(=O)N[C@H](CCCNC(=N)N)C(=O)N[C@H](CCCNC(=N)N)C(N)=O
notes: Synthetic cyclic peptide; also called Chem. 5
In the case of B1, the “MC4R cAMP EC50” value [1] is reported as 0.22 nM, the “MC1R cAMP EC50” value [2] is reported as 172 nM and the IC50 [3] is reported as 39.7 nM. It also gave an IC50 [4] of 0.23 nM.
